The record followed here is publication PMC2780419.

This experiment deals with GST-gc-p300/CH1 fusion protein (CH1 domain of grass carp p300) (grass carp (Ctenopharyngodon idella)).

As to “gcCITED3a (grass carp CITED3a), in vitro translated (natural protein)”, the gcHIF-1-mediated transactivation of HRE-luciferase activity in CHO cells, change in the presence of gcCITED3a is -40%.

“gcCITED3b (grass carp CITED3b), in vitro translated (natural protein)”: the gcHIF-1-mediated transactivation of HRE-luciferase activity in CHO cells, change in the presence of gcCITED3b is -40%.
